Source: IntAct's records for PubMed 17911252

B1: N-chimaerin (Homo sapiens), P15882-1 (parent)
chain: MALTLFDTDEYRPPVWKSYLYQLQQEAPHPRRITCTCEVENRPKYYGREFHGMISREAADQLLIVAEGSYLIRESQRQPGTYTLALRFGSQTRNFRLYYDGKHFVGEKRFESIHDLVTDGLITLYIETKAAEYIAKMTINPIYEHVGYTTLNREPAYKKHMPVLKETHDERDSTGQDGVSEKRLTSLVRRATLKENEQIPKYEKIHNFKVHTFRGPHWCEYCANFMWGLIAQGVKCADCGLNVHKQCSKMVPNDCKPDLKHVKKVYSCDLTTLVKAHTTKRPMVVDMCIREIESRGLNSEGLYRVSGFSDLIEDVKMAFDRDGEKADISVNMYEDINIITGALKLYFRDLPIPLITYDAYPKFIESAKIMDPDEQLETLHEALKLLPPAHCETLRYLMAHLKRVTLHEKENLMNAENLGIVFGPTLMRSPELDAMAALNDIRYQRLVVELLIKNEDILF

Variants of: B1
Conditions: with epha4_mouse Epha4, Q03137
epha4_mouse Epha4, Q03137, sequence (Q03137 whole entry): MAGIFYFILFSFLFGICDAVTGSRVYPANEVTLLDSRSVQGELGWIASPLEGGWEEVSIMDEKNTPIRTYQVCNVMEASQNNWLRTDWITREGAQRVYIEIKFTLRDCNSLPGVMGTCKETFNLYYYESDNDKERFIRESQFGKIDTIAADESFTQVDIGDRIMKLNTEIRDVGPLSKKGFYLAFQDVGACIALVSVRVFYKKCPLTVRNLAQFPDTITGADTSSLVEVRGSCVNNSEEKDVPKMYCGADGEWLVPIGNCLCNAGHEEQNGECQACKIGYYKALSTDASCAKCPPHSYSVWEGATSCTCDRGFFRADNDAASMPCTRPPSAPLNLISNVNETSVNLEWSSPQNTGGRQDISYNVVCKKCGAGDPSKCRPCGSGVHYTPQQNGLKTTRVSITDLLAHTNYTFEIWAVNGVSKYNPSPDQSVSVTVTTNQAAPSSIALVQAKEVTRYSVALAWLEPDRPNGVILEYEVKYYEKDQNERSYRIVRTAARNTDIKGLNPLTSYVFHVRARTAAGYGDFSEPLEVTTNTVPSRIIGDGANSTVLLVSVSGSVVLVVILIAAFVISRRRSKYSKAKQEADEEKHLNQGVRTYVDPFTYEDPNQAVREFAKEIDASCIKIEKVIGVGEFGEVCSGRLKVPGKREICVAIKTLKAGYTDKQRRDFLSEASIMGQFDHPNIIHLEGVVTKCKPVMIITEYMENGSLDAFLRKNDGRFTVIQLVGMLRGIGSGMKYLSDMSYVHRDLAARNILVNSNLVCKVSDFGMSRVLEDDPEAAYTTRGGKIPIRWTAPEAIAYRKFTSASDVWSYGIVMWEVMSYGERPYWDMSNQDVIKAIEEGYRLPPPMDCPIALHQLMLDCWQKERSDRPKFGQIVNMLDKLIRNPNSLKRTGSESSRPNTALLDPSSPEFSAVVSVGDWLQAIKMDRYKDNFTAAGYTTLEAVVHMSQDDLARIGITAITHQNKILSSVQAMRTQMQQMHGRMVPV

| effect of a mutation on the interaction | Variant |
| --- | --- |
| decreasing interaction strength | MALTLFDTDEYRPPVWKSYLYQLQQEAPHPRRITCTCEVENRPKYYGREFHGMISLEAADQLLIVAEGSYLIRESQRQPGTYTLALRFGSQTRNFRLYYDGKHFVGEKRFESIHDLVTDGLITLYIETKAAEYIAKMTINPIYEHVGYTTLNREPAYKKHMPVLKETHDERDSTGQDGVSEKRLTSLVRRATLKENEQIPKYEKIHNFKVHTFRGPHWCEYCANFMWGLIAQGVKCADCGLNVHKQCSKMVPNDCKPDLKHVKKVYSCDLTTLVKAHTTKRPMVVDMCIREIESRGLNSEGLYRVSGFSDLIEDVKMAFDRDGEKADISVNMYEDINIITGALKLYFRDLPIPLITYDAYPKFIESAKIMDPDEQLETLHEALKLLPPAHCETLRYLMAHLKRVTLHEKENLMNAENLGIVFGPTLMRSPELDAMAALNDIRYQRLVVELLIKNEDILF [R56L] |
